Laboratory results: PMC3731144 (Proteins, 2012)

Tests used:
[1] = biological target: gp120YU2 T257A (HIV-1 strain YU2); experiment: SPR
[2] = biological target: gp120YU2 D474A (HIV-1 strain YU2); experiment: SPR
[3] = biological target: gp120YU2 E102A (HIV-1 strain YU2); experiment: SPR
[4] = biological target: gp120YU2 K97A (HIV-1 strain YU2); experiment: SPR
CCR5-utilizing virus = conditions: ref [4]; cited from earlier work

Substance	Kd [1] [nM]	RU bound at the end of association (500 nM CD4) [1] [RU]	Kd [2] [nM]	RU bound at the end of association (500 nM CD4) [2] [RU]	Kd [3] [nM]	Kd [4] [nM]	antiviral effectiveness by tropism (CCR5-utilizing virus)
Hexahis-tagged 4-domain soluble CD4 (receptor)	5	23	5	47	3	10	
maraviroc							only effective against solely CCR5-utilizing virus
